The values that follow come from IntAct's records for PubMed 18959476.

This experiment addresses mthK, O27564-2.

With “Calcium-gated potassium channel MthK (Methanobacterium thermoautotrophicum) (from UniProt O27564-1) L3D”, the “effect of a mutation on the interaction” value is reported as “disrupting interaction”.
